Test results taken from patent US20210315964A1 (University of Pennsylvania, published 2021).

T1: recombinant human peroxiredoxin 6 (hPrdx6) (human, UniProt P30041 1-224, limits assumed)
T1 sequence (looked up): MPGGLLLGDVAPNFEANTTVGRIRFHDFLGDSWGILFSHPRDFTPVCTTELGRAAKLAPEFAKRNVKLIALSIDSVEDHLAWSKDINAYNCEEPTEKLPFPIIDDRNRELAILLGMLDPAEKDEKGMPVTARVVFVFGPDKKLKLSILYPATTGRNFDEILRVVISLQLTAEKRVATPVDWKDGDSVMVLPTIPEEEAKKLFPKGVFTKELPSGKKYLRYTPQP


target: T1, recombinant human peroxiredoxin 6 …; experiment: cell-based or functional assay

| Binder | aiPLA2 activity of human recombinant protein with peptide (hPrdx6 only: 92.0) |
| --- | --- |
| TLHDFRHQI [SEQ ID NO: 19 … (10)] | 31.5 nmol/min/mg prot. |
| LHDFRHQIL [PIP-2 LHDFRHQIL] | 29.9 nmol/min/mg prot. |
| LYEIKHQIL [PIP-4 LYEIKHQIL] | 32.3 nmol/min/mg prot. |
| DEELQTELYEIKHQIL [PIP-3 (rat, mouse, 16-mer) DEELQTELYEIKHQIL] | 32 nmol/min/mg prot. |

target: T1, recombinant human peroxiredoxin 6 …; experiment: cell-based or functional assay; remark: another data set of the same source

| Binder | aiPLA2 activity of human recombinant Prdx6 with peptide (no peptide, hPrdx6 only: 99.91) |
| --- | --- |
| LHDFRHQIL [PIP-2 LHDFRHQIL] | 26.2 nmol/min/mg prot. |
| LKIEYHQIL [SN019 LKIEYHQIL] | 97.7 nmol/min/mg prot. |
| LRFDHHQIL [SN020 LRFDHHQIL] | 99 nmol/min/mg prot. |
| LYDIRHQIL [PIP-5 LYDIRHQIL] | 29.7 nmol/min/mg prot. |
| LHEFKHQIL [SN022 LHEFKHQIL] | 99.4 nmol/min/mg prot. |
| LFKLEHQIL [SN023 LFKLEHQIL] | 98 nmol/min/mg prot. |
| LHDFRDQIL [SN024 LHDFRDQIL] | 102 nmol/min/mg prot. |
| LHDFRPQIL [SN025 LHDFRPQIL] | 101 nmol/min/mg prot. |
| LHDFRHNIL [SN026 LHDFRHNIL] | 99 nmol/min/mg prot. |
| LHDFRHIIL [SN029 (row of SEQ ID NO: 31) LHDFRHIIL] | 97.3 nmol/min/mg prot. |
| LHDFRHQLL [SN028 LHDFRHQLL] | 102 nmol/min/mg prot. |
| LHDFRHQTL [SN029 (row of SEQ ID NO: 33) LHDFRHQTL] | 100 nmol/min/mg prot. |

target: T1, recombinant human peroxiredoxin 6 …; experiment: cell-based or functional assay; remark: another data set of the same source

| Binder | aiPLA2 activity of recombinant hPrdx6 with peptide (hPrdx6 only, no peptide: 93.4) |
| --- | --- |
| DEELQATLHDFRHQIL [PIP-1 (human, 16-mer) DEELQATLHDFRHQIL] | 45 nmol/min/mg prot. |
| DEELQTELYEIKHQIL [PIP-3 (rat, mouse, 16-mer) DEELQTELYEIKHQIL] | 32 nmol/min/mg prot. |
| ELQTELYEIKHQIL [SEQ ID NO: 10 ELQTELYEIKHQIL (14)] | 33.2 nmol/min/mg prot. |
| QTELYEIKHQIL [SEQ ID NO: 11 QTELYEIKHQIL (12)] | 31.5 nmol/min/mg prot. |
| ELYEIKHQIL [SEQ ID NO: 12 ELYEIKHQIL (10)] | 28.6 nmol/min/mg prot. |
| YEIKHQIL [SEQ ID NO: 13 YEIKHQIL (8)] | 94.4 nmol/min/mg prot. |
| IKHQIL [SEQ ID NO: 14 IKHQIL (6)] | 97.1 nmol/min/mg prot. |
| DEELQTELYEIK [SEQ ID NO: 15 … (14)] | 102 nmol/min/mg prot. |
| DEELQTELYEI [SEQ ID NO: 16 … (12)] | 95.7 nmol/min/mg prot. |
